Test results taken from patent publication US20130225488A1 (CADILA HEALTHCARE, published 2013).
Where no end group is shown, it is not given here. [ ]: non-standard residue; d: D form. Ac3c = NC1(C(=O)O)CC1; Aib = CC(C)(N)C(=O)O

B1: Seq. ID. No. 18: H-(ACP)-QGTFTSD-Bip(OMe)-Bip(Pyr) (peptide)
peptide: H[Ac3c]QGTFTSD[Bip(OMe)][Bip(Pyr)]
B2: Seq. ID. No. 8: HSQGTFTSD-Bip(OMe)-Bip(2CF3) (peptide)
peptide: HSQGTFTSD[Bip(OMe)][Bip(2CF3)]
modifications: not fully specified (C-terminus); printed as HSQGTFTSD-Bip(OMe)-Bip(2CF3)
B3: Seq. ID. No. 35: H-(ACP)-QGT-(α-Me-2F-Phe)-TSD-Bip(OMe)-Bip(2F) (peptide)
peptide: HXQGTXTSDXX
modifications: not fully specified; ACP at 2; α-Me-2F-Phe at 6; Bip(OMe) at 10; Bip(2F) at 11
B4: Seq. ID. No. 13: H-Aib-QGTFTSD-Bip(OMe)-Bip(2Me) (peptide)
peptide: H[Aib]QGTFTSD[Bip(OMe)][Bip(2Me)]
B5: Seq. ID. No. 7: HSQGTFTSD-Bip(OMe)-Bip(2F) (peptide)
peptide: HSQGTFTSD[Bip(OMe)][Bip(2F)]
modifications: not fully specified (C-terminus); printed as HSQGTFTSD-Bip(OMe)-Bip(2F)
B6: Seq. ID. No. 9: HAQGTFTSD-Bip(OMe)-Bip(2Me) (peptide)
peptide: HAQGTFTSD[Bip(OMe)][Bip(2Me)]
modifications: not fully specified (C-terminus); printed as HAQGTFTSD-Bip(OMe)-Bip(2Me)
B7: Seq. ID. No. 17: H-(ACP)-QGTFTSD-Bip(OMe)-Bip(2Me) (peptide)
peptide: H[Ac3c]QGTFTSD[Bip(OMe)][Bip(2Me)]
B8: Seq. ID. No. 15: H-Aib-QGTFTSD-Bip(OMe)-Bip(2F) (peptide)
peptide: H[Aib]QGTFTSD[Bip(OMe)][Bip(2F)]
B9: Seq. ID. No. 16: H-Aib-QGTFTSD-Bip(OMe)-Bip(2CF3) (peptide)
peptide: H[Aib]QGTFTSD[Bip(OMe)][Bip(2CF3)]
B10: Seq. ID. No. 14: H-Aib-QGTFTSD-Bip(OMe)-Bip(Pyr) (peptide)
peptide: H[Aib]QGTFTSD[Bip(OMe)][Bip(Pyr)]
B11: Seq. ID. No. 11: HAQGTFTSD-Bip(OMe)-Bip(2F) (peptide)
peptide: HAQGTFTSD[Bip(OMe)][Bip(2F)]

Biological target: Human GLP-1 receptor (human, UniProt P43220 24-463)
Assay: cell-based or functional assay

Sequence of Human GLP-1 receptor (P43220 24-463): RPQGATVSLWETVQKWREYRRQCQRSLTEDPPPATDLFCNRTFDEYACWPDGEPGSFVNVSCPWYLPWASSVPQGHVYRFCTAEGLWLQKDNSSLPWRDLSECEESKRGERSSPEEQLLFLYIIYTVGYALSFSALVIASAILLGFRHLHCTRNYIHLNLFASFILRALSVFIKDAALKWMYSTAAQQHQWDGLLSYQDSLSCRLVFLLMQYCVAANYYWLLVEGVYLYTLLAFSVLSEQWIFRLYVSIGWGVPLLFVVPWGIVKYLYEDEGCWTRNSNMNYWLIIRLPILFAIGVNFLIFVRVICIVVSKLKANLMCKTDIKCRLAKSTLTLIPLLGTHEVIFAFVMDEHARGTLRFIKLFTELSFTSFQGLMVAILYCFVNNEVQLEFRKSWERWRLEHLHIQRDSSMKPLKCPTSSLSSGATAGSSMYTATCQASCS

| Binder | cAMP release, % activity with respect to control; test compound 1 nM | cAMP release, % activity with respect to control; test compound 10 nM | cAMP release, % activity with respect to control; test compound 100 nM | cAMP release, % activity with respect to control; test compound 1 µM | cAMP release, % activity with respect to control; test compound 10 µM |
| --- | --- | --- | --- | --- | --- |
| B1 | 86% | 99% | 99% | 99% | 99% |
| B2 | 40% | 81% | 87% | 95% | 98% |
| B3 | 99% | 99% | 99% | 99% | 99% |
| B4 | 60% | 92% | 98% | 99% | 99% |
| B5 | 45% | 84% | 90% | 99% | 99% |
| B6 | 38% | 77% | 85% | 94% | 97% |
| B7 | 78% | 99% | 99% | 99% | 99% |
| B8 | 66% | 97% | 99% | 99% | 99% |
| B9 | 69% | 98% | 99% | 99% | 99% |
| B10 | 62% | 94% | 99% | 99% | 99% |
| B11 | 51% | 86% | 91% | 99% | 99% |

Biological target: Human glucagon receptor (human, UniProt P47871 26-477)
Assay: cell-based or functional assay

| Binder | cAMP production with saturated glucagon peptide; test compound 1 nM | cAMP production with saturated glucagon peptide; test compound 10 nM | cAMP production with saturated glucagon peptide; test compound 100 nM | cAMP production with saturated glucagon peptide; test compound 10 µM | cAMP production with saturated glucagon peptide; test compound '1 nM' |
| --- | --- | --- | --- | --- | --- |
| B1 | 0 pmol/ml/µg prt | 0 pmol/ml/µg prt | 0 pmol/ml/µg prt | 0 pmol/ml/µg prt | 0 pmol/ml/µg prt |
| B2 | 4 pmol/ml/µg prt | 2 pmol/ml/µg prt | 0 pmol/ml/µg prt | 0 pmol/ml/µg prt | 0 pmol/ml/µg prt |
| B3 | 5 pmol/ml/µg prt | 3 pmol/ml/µg prt | 1 pmol/ml/µg prt | 0 pmol/ml/µg prt | 0 pmol/ml/µg prt |
| B4 | 10 pmol/ml/µg prt | 8 pmol/ml/µg prt | 6 pmol/ml/µg prt | 1 pmol/ml/µg prt | 4 pmol/ml/µg prt |
| B5 | 6 pmol/ml/µg prt | 5 pmol/ml/µg prt | 2 pmol/ml/µg prt | 0 pmol/ml/µg prt | 0 pmol/ml/µg prt |
| B6 | 18 pmol/ml/µg prt | 16 pmol/ml/µg prt | 12 pmol/ml/µg prt | 6 pmol/ml/µg prt | 8 pmol/ml/µg prt |
| B7 | 2 pmol/ml/µg prt | 0 pmol/ml/µg prt | 0 pmol/ml/µg prt | 0 pmol/ml/µg prt | 0 pmol/ml/µg prt |
| B8 | 6 pmol/ml/µg prt | 5 pmol/ml/µg prt | 2 pmol/ml/µg prt | 0 pmol/ml/µg prt | 0 pmol/ml/µg prt |
| B9 | 4 pmol/ml/µg prt | 2 pmol/ml/µg prt | 0 pmol/ml/µg prt | 0 pmol/ml/µg prt | 0 pmol/ml/µg prt |
| B10 | 9 pmol/ml/µg prt | 6 pmol/ml/µg prt | 5 pmol/ml/µg prt | 0 pmol/ml/µg prt | 3 pmol/ml/µg prt |
| B11 | 10 pmol/ml/µg prt | 8 pmol/ml/µg prt | 6 pmol/ml/µg prt | 0 pmol/ml/µg prt | 2 pmol/ml/µg prt |
